Test results taken from patent publication US20230407373A1 (priority 2020, published 2023).
Where two headings read alike, the source gives them in different places.

B1: SRSF7 (protein, UniProt Q16629 1-238, looked up)
Serine/arginine-rich splicing …: MSRYGRYGGETKVYVGNLGTGAGKGELERAFSYYGPLRTVWIARNPPGFAFVEFEDPRDAEDAVRGLDGKVICGSRVRVELSTGMPRRSRFDRPPARRPFDPNDRCYECGEKGHYAYDCHRYSRRRRSRSRSRSHSRSRGRRYSRSRSRSRGRRSRSASPRRSRSISLRRSRSASLRRSRSGSIKGSRYFQSPSRSRSRSRSISRPRSSRSKSRSPSPKRSRSPSGSPRRSASPERMD
B2: FUS (protein, UniProt P35637 1-526, looked up)
RNA-binding protein FUS: MASNDYTQQATQSYGAYPTQPGQGYSQQSSQPYGQQSYSGYSQSTDTSGYGQSSYSSYGQSQNTGYGTQSTPQGYGSTGGYGSSQSSQSSYGQQSSYPGYGQQPAPSSTSGSYGSSSQSSSYGQPQSGSYSQQPSYGGQQQSYGQQQSYNPPQGYGQQNQYNSSSGGGGGGGGGGNYGQDQSSMSSGGGSGGGYGNQDQSGGGGSGGYGQQDRGGRGRGGSGGGGGGGGGGYNRSSGGYEPRGRGGGRGGRGGMGGSDRGGFNKFGGPRDQGSRHDSEQDNSDNNTIFVQGLGENVTIESVADYFKQIGIIKTNKKTGQPMINLYTDRETGKLKGEATVSFDDPPSAKAAIDWFDGKEFSGNPIKVSFATRRADFNRGGGNGRGGRGRGGPMGRGGYGGGGSGGGGRGGFPSGGGGGGGQQRAGDWKCPNPTCENMNFSWRNECNQCKAPKPDGPGGGPGGSHMGGNYGDDRRGGRGGYDRGGYRGRGGDRGGFRGGRGGGDRGGFGPGKMDSRGEHRQDRRERPY
B3: MAP4 (protein, UniProt P27816 2-1152, looked up)
Microtubule-associated …: ADLSLADALTEPSPDIEGEIKRDFIATLEAEAFDDVVGETVGKTDYIPLLDVDEKTGNSESKKKPCSETSQIEDTPSSKPTLLANGGHGVEGSDTTGSPTEFLEEKMAYQEYPNSQNWPEDTNFCFQPEQVVDPIQTDPFKMYHDDDLADLVFPSSATADTSIFAGQNDPLKDSYGMSPCNTAVVPQGWSVEALNSPHSESFVSPEAVAEPPQPTAVPLELAKEIEMASEERPPAQALEIMMGLKTTDMAPSKETEMALAKDMALATKTEVALAKDMESPTKLDVTLAKDMQPSMESDMALVKDMELPTEKEVALVKDVRWPTETDVSSAKNVVLPTETEVAPAKDVTLLKETERASPIKMDLAPSKDMGPPKENKKETERASPIKMDLAPSKDMGPPKENKIVPAKDLVLLSEIEVAQANDIISSTEISSAEKVALSSETEVALARDMTLPPETNVILTKDKALPLEAEVAPVKDMAQLPETEIAPAKDVAPSTVKEVGLLKDMSPLSETEMALGKDVTPPPETEVVLIKNVCLPPEMEVALTEDQVPALKTEAPLAKDGVLTLANNVTPAKDVPPLSETEATPVPIKDMEIAQTQKGISEDSHLESLQDVGQSAAPTFMISPETVTGTGKKCSLPAEEDSVLEKLGERKPCNSQPSELSSETSGIARPEEGRPVVSGTGNDITTPPNKELPPSPEKKTKPLATTQPAKTSTSKAKTQPTSLPKQPAPTTIGGLNKKPMSLASGLVPAAPPKRPAVASARPSILPSKDVKPKPIADAKAPEKRASPSKPASAPASRSGSKSTQTVAKTTTAAAVASTGPSSRSPSTLLPKKPTAIKTEGKPAEVKKMTAKSVPADLSRPKSTSTSSMKKTTTLSGTAPAAGVVPSRVKATPMPSRPSTTPFIDKKPTSAKPSSTTPRLSRLATNTSAPDLKNVRSKVGSTENIKHQPGGGRAKVEKKTEAAATTRKPESNAVTKTAGPIASAQKQPAGKVQIVSKKVSYSHIQSKCGSKDNIKHVPGGGNVQIQNKKVDISKVSSKCGSKANIKHKPGGGDVKIESQKLNFKEKAQAKVGSLDNVGHLPAGGAVKTEGGGSEAPLCPGPPAGEEPAISEAAPEAGAPTSASGLNGHPTLSGGGDQREAQTLDSQIQETSI
B4: MBNL1 (protein, UniProt Q9NR56 1-388, looked up)
Muscleblind-like protein 1: MAVSVTPIRDTKWLTLEVCREFQRGTCSRPDTECKFAHPSKSCQVENGRVIACFDSLKGRCSRENCKYLHPPPHLKTQLEINGRNNLIQQKNMAMLAQQMQLANAMMPGAPLQPVPMFSVAPSLATNASAAAFNPYLGPVSPSLVPAEILPTAPMLVTGNPGVPVPAAAAAAAQKLMRTDRLEVCREYQRGNCNRGENDCRFAHPADSTMIDTNDNTVTVCMDYIKGRCSREKCKYFHPPAHLQAKIKAAQYQVNQAAAAQAAATAAAMTQSAVKSLKRPLEATFDLGIPQAVLPPLPKRPALEKTNGATAVFNTGIFQYQQALANMQLQQHTAFLPPVPMVHGATPATVSAATTSATSVPFAATATANQIPIISAEHLTSHKYVTQM
B5: EDF1 (protein, UniProt O60869 2-148, looked up)
Endothelial …: AESDWDTVTVLRKKGPTAAQAKSKQAILAAQRRGEDVETSKKWAAGQNKQHSITKNTAKLDRETEELHHDRVTLEVGKVIQQGRQSKGLTQKDLATKINEKPQVIADYESGRAIPNNQVLGKIERAIGLKLRGKDIGKPIEKGPRAK
B6: DDX17 (protein, UniProt Q92841 1-729, looked up)
Probable ATP-dependent RNA …: MPTGFVAPILCVLLPSPTREAATVASATGDSASERESAAPAAAPTAEAPPPSVVTRPEPQALPSPAIRAPLPDLYPFGTMRGGGFGDRDRDRDRGGFGARGGGGLPPKKFGNPGERLRKKKWDLSELPKFEKNFYVEHPEVARLTPYEVDELRRKKEITVRGGDVCPKPVFAFHHANFPQYVMDVLMDQHFTEPTPIQCQGFPLALSGRDMVGIAQTGSGKTLAYLLPAIVHINHQPYLERGDGPICLVLAPTRELAQQVQQVADDYGKCSRLKSTCIYGGAPKGPQIRDLERGVEICIATPGRLIDFLESGKTNLRRCTYLVLDEADRMLDMGFEPQIRKIVDQIRPDRQTLMWSATWPKEVRQLAEDFLRDYTQINVGNLELSANHNILQIVDVCMESEKDHKLIQLMEEIMAEKENKTIIFVETKRRCDDLTRRMRRDGWPAMCIHGDKSQPERDWVLNEFRSGKAPILIATDVASRGLDVEDVKFVINYDYPNSSEDYVHRIGRTARSTNKGTAYTFFTPGNLKQARELIKVLEEANQAINPKLMQLVDHRGGGGGGGGRSRYRTTSSANNPNLMYQDECDRRLRGVKDGGRRDSASYRDRSETDRAGYANGSGYGSPNSAFGAQAGQYTYGQGTYGAAAYGTSSYTAQEYGAGTYGASSTTSTGRSSQSSSQQFSGIGRSGQQPQPLMSQQFAQPPGATNMIGYMGQTAYQYPPPPPPPPPSRK
B7: KHSRP (protein, UniProt Q92945 2-711, looked up)
Far upstream element-binding …: SDYSTGGPPPGPPPPAGGGGGAGGAGGGPPPGPPGAGDRGGGGPGGGGPGGGSAGGPSQPPGGGGPGIRKDAFADAVQRARQIAAKIGGDAATTVNNSTPDFGFGGQKRQLEDGDQPESKKLASQGDSISSQLGPIHPPPRTSMTEEYRVPDGMVGLIIGRGGEQINKIQQDSGCKVQISPDSGGLPERSVSLTGAPESVQKAKMMLDDIVSRGRGGPPGQFHDNANGGQNGTVQEIMIPAGKAGLVIGKGGETIKQLQERAGVKMILIQDGSQNTNVDKPLRIIGDPYKVQQACEMVMDILRERDQGGFGDRNEYGSRIGGGIDVPVPRHSVGVVIGRSGEMIKKIQNDAGVRIQFKQDDGTGPEKIAHIMGPPDRCEHAARIINDLLQSLRSGPPGPPGGPGMPPGGRGRGRGQGNWGPPGGEMTFSIPTHKCGLVIGRGGENVKAINQQTGAFVEISRQLPPNGDPNFKLFIIRGSPQQIDHAKQLIEEKIEGPLCPVGPGPGGPGPAGPMGPFNPGPFNQGPPGAPPHAGGPPPHQYPPQGWGNTYPQWQPPAPHDPSKAAAAAADPNAAWAAYYSHYYQQPPGPVPGPAPAPAAPPAQGEPPQPPPTGQSDYTKAWEEYYKKIGQQPQQPGAPPQQDYTKAWEEYYKKQAQVATGGGPGAPPGSQPDYSAAWAEYYRQQAAYYGQTPGPGGPQPPPTQQGQQQAQ

Key:
Type in all cases: binding
SARS-CoV-2 gRNA = details: for target (unweighted spectral count of the protein in the RNP capture): LC-MS/MS, Probe I sample (first 199 lines of Table 2)
[1] = test system: SARS-CoV-2 gRNA and sgRNAs; details: for target (unweighted spectral count in RNP capture): Probe II capture, LC-MS/MS LFQ; for background (unweighted spectral count in control): no-probe control pull-down, used as background for Probe II
HCoV-OC43 gRNA and sgRNA = test system: HCoV-OC43 gRNA and sgRNA
[2] = 36 hpi, type n_36_v, tested against no-probe control, FDR<10%
[3] = OC43 Probe II, 12 hpi (type n_12_v), infected cells, tested against no-probe control
[4] = OC43 Probe II, 24 hpi (type n_24_v), infected cells, tested against no-probe control
[5] = type n_48_v, 48 hpi, OC43 Probe II capture on infected cells
[6] = type n_48_v, 48 hpi, no-probe control on infected cells
[7] = 24 hpi, type n_24_v, tested against no-probe control, FDR<10%

| Molecule | target (unweighted spectral count of the protein in the RNP capture) (SARS-CoV-2 gRNA; […]) | target (unweighted spectral count in RNP capture) [1] | background (unweighted spectral count in control) [1] | background (unweighted spectral count, no-probe control) (HCoV-OC43 gRNA and sgRNA) | target (unweighted spectral count) (HCoV-OC43 gRNA and sgRNA) | target (unweighted spectral count, OC43 Probe II capture) (HCoV-OC43 gRNA and sgRNA) | target (unweighted spectral count, OC43 Probe II) (HCoV-OC43 gRNA and sgRNA) | target (unweighted spectral count, OC43 Probe II capture) (HCoV-OC43 gRNA and sgRNA; [2]) | target (unweighted spectral count) (HCoV-OC43 gRNA and sgRNA; [3]) | target (unweighted spectral count) (HCoV-OC43 gRNA and sgRNA; [4]) | target (unweighted spectral count, OC43 Probe II) (HCoV-OC43 gRNA and sgRNA; [5]) | background (unweighted spectral count, no-probe control) (HCoV-OC43 gRNA and sgRNA; [6]) | target (unweighted spectral count, OC43 Probe II capture) (HCoV-OC43 gRNA and sgRNA; [7]) | target (unweighted spectral count, OC43 Probe II) (HCoV-OC43 gRNA and sgRNA; type n_36_v, 36 hpi, OC43 Probe II capture on infected cells) | background (unweighted spectral count, no-probe control) (HCoV-OC43 gRNA and sgRNA; type n_36_v, 36 hpi, no-probe control on infected cells) | target (unweighted spectral count in RNP capture) (SARS-CoV-2 gRNA; Probe I capture, […], LC-MS/MS LFQ) | background (unweighted spectral count in control) (SARS-CoV-2 gRNA; no-probe control pull-down, used as background for Probe I) |
| --- | --- | --- | --- | --- | --- | --- | --- | --- | --- | --- | --- | --- | --- | --- | --- | --- | --- |
| B1 | 21 | 16 | 1 | 4 | 5 | 14 | 19 | – | – | – | – | – | – | – | – | – | – |
| B2 | 5 | 7 | 1 | – | – | – | – | 7 | 6 | 9 | 11 | 1 | – | – | – | – | – |
| B3 | 14 | – | 1 | – | – | – | – | – | 5 | – | – | – | 8 | 11 | 4 | – | – |
| B4 | 19 | 32 | 1 | – | – | – | – | – | 5 | – | – | – | – | – | – | – | – |
| B5 | – | 8 | 1 | – | – | – | – | – | – | – | – | – | 4 | – | – | 5 | 1 |
| B6 | 24 | 15 | 1 | – | – | – | – | 17 | – | 9 | – | – | – | – | – | – | – |
| B7 | 128 | 82 | 1 | – | – | – | – | 76 | 23 | 47 | 86 | 5 | – | – | – | – | – |
